Measurements as given in the supplement of paper PMC9112550, “Optimization of the antimicrobial peptide Bac7 by deep mutational scanning” (BMC Biology, 2022).

Each sequence was assayed on Escherichia coli TOP10 (assay: shrunken log2 fold change of peptide-encoding DNA abundance (4.5 h post-induction vs induction); higher = less antimicrobial activity (less host growth inhibition)). Conditions: time post-induction: 4.5 h; library: site-saturation at positions 5, 18, 19, 20.
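Note: peptides expressed intracellularly from a pBAD plasmid library in pooled LB shake-flask culture, induced with 0.3% L-arabinose, DNA abundance read by NGS, three biological replicates, DESeq2 with apeglm shrinkage.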

| Sequence | shrunken log2 fold change |
| --- | --- |
| RRIRTRPPRLPRPRPRPQGCPRP | 0.0515 |
| RRIRNRPPRLPRPRPRPYCAPRP | -1.05 |
| RRIRVRPPRLPRPRPRPEERPRP | -0.194 |
| RRIRYRPPRLPRPRPRPVERPRP | 0.00806 |
| RRIRKRPPRLPRPRPRPRDSPRP | 0.262 |
| RRIRHRPPRLPRPRPRPFYLPRP | -0.915 |
| RRIRHRPPRLPRPRPRPITAPRP | -0.303 |
| RRIRDRPPRLPRPRPRPNYWPRP | -0.218 |
| RRIRLRPPRLPRPRPRPRPCPRP | 0.421 |
| RRIRQRPPRLPRPRPRPVVTPRP | 0.219 |
| RRIRDRPPRLPRPRPRPTGEPRP | 0.119 |
| RRIRNRPPRLPRPRPRPEWKPRP | 0.0303 |
| RRIRNRPPRLPRPRPRPLSMPRP | -0.012 |
| RRIRRRPPRLPRPRPRPCVKPRP | 0.252 |
| RRIRWRPPRLPRPRPRPGSRPRP | 0.244 |
| RRIRCRPPRLPRPRPRPTPLPRP | 0.522 |
| RRIRTRPPRLPRPRPRPNDKPRP | -0.605 |
| RRIRPRPPRLPRPRPRPIMSPRP | 0.0779 |
| RRIRMRPPRLPRPRPRPMHEPRP | 3.07 |
| RRIRGRPPRLPRPRPRPPLYPRP | 0.459 |
| RRIRKRPPRLPRPRPRPRGNPRP | 0.258 |
| RRIRCRPPRLPRPRPRPSLNPRP | -0.341 |

| Sequence | shrunken log2 fold change |
| --- | --- |
| RRIRWRPPRLPRPRPRPMNSPRP | -0.0812 |
| RRIRSRPPRLPRPRPRPFAHPRP | 0.0573 |
| RRIRMRPPRLPRPRPRPRLMPRP | -0.0423 |
| RRIRCRPPRLPRPRPRPAKTPRP | -0.0664 |
| RRIRPRPPRLPRPRPRPFKEPRP | -0.54 |
| RRIRNRPPRLPRPRPRPGVEPRP | 0.604 |
| RRIRVRPPRLPRPRPRPDTGPRP | -0.00804 |
| RRIRHRPPRLPRPRPRPWPKPRP | 0.015 |
| RRIRTRPPRLPRPRPRPDFEPRP | 0.0498 |
| RRIRDRPPRLPRPRPRPPHQPRP | -0.022 |
| RRIRLRPPRLPRPRPRPCDIPRP | -0.0237 |
| RRIRKRPPRLPRPRPRPRDFPRP | 0.188 |
| RRIRLRPPRLPRPRPRPLHEPRP | -0.00702 |
| RRIRYRPPRLPRPRPRPSKSPRP | -0.257 |
| RRIRWRPPRLPRPRPRPELAPRP | 0.758 |
| RRIRQRPPRLPRPRPRPLRGPRP | 0.664 |
| RRIRHRPPRLPRPRPRPYHAPRP | -1.21 |
| RRIRYRPPRLPRPRPRPAGIPRP | -0.359 |
| RRIRSRPPRLPRPRPRPNNQPRP | -0.104 |
| RRIRERPPRLPRPRPRPPHCPRP | 0.118 |
| RRIRRRPPRLPRPRPRPHMSPRP | -0.0996 |
| RRIRYRPPRLPRPRPRPYNMPRP | -1.09 |

| Sequence | shrunken log2 fold change |
| --- | --- |
| RRIRPRPPRLPRPRPRPHSIPRP | -0.418 |
| RRIRTRPPRLPRPRPRPFVNPRP | -0.223 |
| RRIRYRPPRLPRPRPRPLDGPRP | -0.467 |
| RRIRKRPPRLPRPRPRPTKTPRP | 0.14 |
| RRIRKRPPRLPRPRPRPIVVPRP | 0.0157 |
| RRIRSRPPRLPRPRPRPNVCPRP | -0.0635 |
| RRIRMRPPRLPRPRPRPSFMPRP | 0.0821 |
| RRIRLRPPRLPRPRPRPEDSPRP | -0.0351 |
| RRIRMRPPRLPRPRPRPWFEPRP | -0.13 |
| RRIRPRPPRLPRPRPRPKCCPRP | 0.228 |
| RRIRYRPPRLPRPRPRPYMGPRP | -0.019 |
| RRIRMRPPRLPRPRPRPWVYPRP | -0.0124 |
| RRIRWRPPRLPRPRPRPDQLPRP | 0.066 |
| RRIRLRPPRLPRPRPRPIATPRP | 0.173 |
| RRIRFRPPRLPRPRPRPVMDPRP | -0.378 |
| RRIRSRPPRLPRPRPRPTPGPRP | 0.451 |
| RRIRIRPPRLPRPRPRPPDVPRP | -0.109 |
| RRIRNRPPRLPRPRPRPETTPRP | 0.0795 |
| RRIRNRPPRLPRPRPRPQLNPRP | -0.539 |
| RRIRMRPPRLPRPRPRPPANPRP | 1.17 |
| RRIRVRPPRLPRPRPRPHQYPRP | -0.278 |
| RRIRHRPPRLPRPRPRPRRRPRP | 0.0874 |

| Sequence | shrunken log2 fold change |
| --- | --- |
| RRIRRRPPRLPRPRPRPMAHPRP | 0.0412 |
| RRIRVRPPRLPRPRPRPLVCPRP | -0.253 |
| RRIRWRPPRLPRPRPRPEVEPRP | -0.016 |
| RRIRPRPPRLPRPRPRPIDNPRP | -0.15 |
| RRIRWRPPRLPRPRPRPKVHPRP | -0.136 |
| RRIRPRPPRLPRPRPRPLMEPRP | 0.0162 |
| RRIRRRPPRLPRPRPRPWWNPRP | -0.188 |
| RRIRLRPPRLPRPRPRPQYSPRP | -0.1 |
| RRIRMRPPRLPRPRPRPPAHPRP | 0.721 |
| RRIRRRPPRLPRPRPRPLQYPRP | 0.615 |
| RRIRCRPPRLPRPRPRPFLRPRP | -0.0477 |
| RRIRPRPPRLPRPRPRPNRYPRP | -0.0334 |
| RRIRYRPPRLPRPRPRPMCRPRP | -0.181 |
| RRIRVRPPRLPRPRPRPMDSPRP | -0.134 |
| RRIRDRPPRLPRPRPRPNGVPRP | -0.0244 |
| RRIRFRPPRLPRPRPRPMKLPRP | -0.0666 |
| RRIRRRPPRLPRPRPRPQRIPRP | -0.00231 |
| RRIRRRPPRLPRPRPRPEVVPRP | 0.472 |
| RRIRQRPPRLPRPRPRPYGYPRP | -0.354 |
| RRIRDRPPRLPRPRPRPPMMPRP | -0.0737 |
| RRIRHRPPRLPRPRPRPPRPPRP | 0.664 |
| RRIRMRPPRLPRPRPRPFTFPRP | -0.096 |

| Sequence | shrunken log2 fold change |
| --- | --- |
| RRIRARPPRLPRPRPRPTAQPRP | 0.936 |
| RRIRVRPPRLPRPRPRPQITPRP | -0.229 |
| RRIRGRPPRLPRPRPRPWFEPRP | -0.111 |
| RRIRFRPPRLPRPRPRPNSSPRP | -0.247 |
| RRIRERPPRLPRPRPRPPAEPRP | 0.758 |
| RRIRFRPPRLPRPRPRPMLFPRP | -0.0947 |
| RRIRCRPPRLPRPRPRPLALPRP | -0.621 |
| RRIRDRPPRLPRPRPRPMEQPRP | -0.164 |
| RRIRVRPPRLPRPRPRPWMYPRP | -0.225 |
| RRIRLRPPRLPRPRPRPCTAPRP | -0.139 |
| RRIRMRPPRLPRPRPRPYLFPRP | -0.0192 |
| RRIRWRPPRLPRPRPRPMSIPRP | -0.191 |
| RRIRGRPPRLPRPRPRPYKEPRP | -0.375 |
| RRIRGRPPRLPRPRPRPVTLPRP | 0.149 |
| RRIRLRPPRLPRPRPRPMMVPRP | -0.145 |
| RRIRCRPPRLPRPRPRPLFPPRP | -0.2 |
| RRIRRRPPRLPRPRPRPACHPRP | 0.306 |
| RRIRFRPPRLPRPRPRPQINPRP | -0.239 |
